How the values were obtained:
[1] = molecular target: T1, Endo180 on cells (Endo180-expressing HT1080-WT cells; Endo180-transfected HEK293-Endo180 cells) (UniProt Q9UBG0 31-1479); assay: flow cytometry on HT1080-WT cells
T1 construct: whole, on cells; One molecule is used for the endogenous protein on HT1080-WT and the transfected protein on HEK293-Endo180; also called uPARAP
T1 sequence (looked up): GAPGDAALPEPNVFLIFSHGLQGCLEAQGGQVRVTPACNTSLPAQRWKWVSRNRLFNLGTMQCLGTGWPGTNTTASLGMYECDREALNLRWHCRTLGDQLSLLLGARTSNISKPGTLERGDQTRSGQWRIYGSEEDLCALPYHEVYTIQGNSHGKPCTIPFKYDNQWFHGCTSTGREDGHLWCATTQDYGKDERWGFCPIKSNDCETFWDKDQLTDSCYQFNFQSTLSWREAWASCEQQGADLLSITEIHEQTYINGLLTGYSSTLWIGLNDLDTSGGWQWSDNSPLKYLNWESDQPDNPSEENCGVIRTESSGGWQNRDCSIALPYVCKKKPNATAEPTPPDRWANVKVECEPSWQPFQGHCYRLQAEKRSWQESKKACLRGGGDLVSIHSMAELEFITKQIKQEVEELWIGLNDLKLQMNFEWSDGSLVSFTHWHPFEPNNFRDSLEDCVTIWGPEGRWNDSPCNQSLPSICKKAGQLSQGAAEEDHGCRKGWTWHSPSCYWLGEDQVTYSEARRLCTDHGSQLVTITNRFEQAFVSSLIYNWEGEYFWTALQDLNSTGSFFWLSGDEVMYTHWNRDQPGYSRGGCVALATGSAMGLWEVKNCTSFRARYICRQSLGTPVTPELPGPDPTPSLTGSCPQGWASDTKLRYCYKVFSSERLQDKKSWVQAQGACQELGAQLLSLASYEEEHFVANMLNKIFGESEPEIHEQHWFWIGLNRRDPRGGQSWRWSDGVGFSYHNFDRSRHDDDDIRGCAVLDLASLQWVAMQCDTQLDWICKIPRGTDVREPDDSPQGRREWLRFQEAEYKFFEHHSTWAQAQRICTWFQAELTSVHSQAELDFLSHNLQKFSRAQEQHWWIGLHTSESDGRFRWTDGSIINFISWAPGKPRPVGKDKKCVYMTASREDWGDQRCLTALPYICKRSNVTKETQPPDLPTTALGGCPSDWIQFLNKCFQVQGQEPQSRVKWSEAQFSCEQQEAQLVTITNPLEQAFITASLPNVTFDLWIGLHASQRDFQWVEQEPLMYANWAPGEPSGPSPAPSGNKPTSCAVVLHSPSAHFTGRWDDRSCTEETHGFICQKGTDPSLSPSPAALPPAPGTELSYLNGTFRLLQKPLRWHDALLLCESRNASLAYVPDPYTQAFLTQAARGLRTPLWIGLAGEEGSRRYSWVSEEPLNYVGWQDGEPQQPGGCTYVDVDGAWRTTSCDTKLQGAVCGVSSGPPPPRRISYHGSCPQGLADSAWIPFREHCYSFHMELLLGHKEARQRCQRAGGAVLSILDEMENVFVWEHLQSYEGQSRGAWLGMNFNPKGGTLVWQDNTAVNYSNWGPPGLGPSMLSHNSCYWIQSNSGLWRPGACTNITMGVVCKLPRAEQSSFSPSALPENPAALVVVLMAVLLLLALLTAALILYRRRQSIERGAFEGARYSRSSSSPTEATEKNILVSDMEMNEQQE

[2] = molecular target: T2, human Endo180-moFc domains I-IV (aa 31-513) (human, UniProt Q9UBG0 31-513); assay: ELISA, immobilized huEndo180-moFc
T2 construct: also called huEndo180 (DI-IV); huEndo180-moFc DI-IV; not shown: murine Fc domain
T2 sequence: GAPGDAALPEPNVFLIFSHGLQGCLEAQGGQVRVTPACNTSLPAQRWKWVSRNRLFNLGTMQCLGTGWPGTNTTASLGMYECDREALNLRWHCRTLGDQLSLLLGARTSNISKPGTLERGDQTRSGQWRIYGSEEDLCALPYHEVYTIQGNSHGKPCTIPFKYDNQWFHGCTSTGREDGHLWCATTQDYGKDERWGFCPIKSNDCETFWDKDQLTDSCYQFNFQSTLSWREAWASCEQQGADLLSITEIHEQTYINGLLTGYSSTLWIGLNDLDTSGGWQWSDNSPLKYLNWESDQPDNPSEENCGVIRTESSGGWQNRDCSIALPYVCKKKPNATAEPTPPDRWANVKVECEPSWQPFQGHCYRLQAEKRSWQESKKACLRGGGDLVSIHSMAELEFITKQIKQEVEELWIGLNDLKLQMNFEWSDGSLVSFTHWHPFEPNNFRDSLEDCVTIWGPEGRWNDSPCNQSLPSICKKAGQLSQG

[3] = molecular target: T3, human Endo180-moFc domains I-III (aa 31-370) (human, UniProt Q9UBG0 31-370); assay: ELISA, immobilized huEndo180-moFc
T3 construct: also called huEndo180 (DI-III); huEndo180-moFc DI-III; not shown: murine Fc domain
T3 sequence: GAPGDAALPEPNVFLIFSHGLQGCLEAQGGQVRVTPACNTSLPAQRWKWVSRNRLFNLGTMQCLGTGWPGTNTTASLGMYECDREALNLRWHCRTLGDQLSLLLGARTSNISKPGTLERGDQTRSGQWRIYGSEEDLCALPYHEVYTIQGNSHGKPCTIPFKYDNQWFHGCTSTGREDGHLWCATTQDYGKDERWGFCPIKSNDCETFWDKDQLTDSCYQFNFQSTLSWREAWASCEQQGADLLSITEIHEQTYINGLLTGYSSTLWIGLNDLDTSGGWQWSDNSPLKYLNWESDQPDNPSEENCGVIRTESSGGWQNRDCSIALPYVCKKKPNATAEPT

[4] = molecular target: T1, Endo180 on cells (Endo180-expressing …); assay: flow cytometry on HEK293-Endo180 cells

- EC50 [1]: 0.4 nM
- EC50 [2]: 0.4 nM
- EC50 [3]: 0.5 nM
- EC50 [4]: 1.5 nM
B1: Human IgG1 G7V with a wildtype γ1 heavy chain (antibody, V domains shown)
VH: EVQLVESGGGLVKPGGSLRLSCAASGFTFSSYSMNWVRQAPGKGLEWVANIKPDGSERHSVDSVKGRFTISRDNSKNSLYLQMNSLRAEDTAVYYCARPGAGRLDYWGQGTLVTVSS
VL: SSELTQDPAVSVALGQTVRITCQGDSLRSYYASWYQQKPGQAPVLVVYGKNNRPSGIPDRFSGSSSGNTASLTITGAQAEDEADYYCNSRDSSGNPWAFGGGTKVTVLG
notes: Naked antibody, made in HEK293-6E (lab scale) or CHO (1 L scale); also called IgG G7V; OMTX007-G7V
